From the supplement of paper PMC10567573

B1: EIF5 (parent)
chain: KQTIGNSCKACGYRGMLDTHHKLC

Variants of: B1
Test: protein stability index of a GFP-peptide fusion (GPS, HEK-293T) (PSI 1-6); higher = more stable
Conditions: c terminus: a fixed tail appended
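Further: lentivirally expressed fusions sorted by FACS into six bins by GFP to DsRed ratio, PSI derived from sequencing read proportions per bin multiplied by bin number.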

Going from KQTIGNSCCACGYRGMLDTHHKLC [K9C] to KQTIGNSCDACGYRGMLDTHHKLC [K9D], the protein stability index falls from 3.97 to 3.87.

Compared with KQTIGNSCEACGYRGMLDTHHKLC [K9E], KQTIGNSCFACGYRGMLDTHHKLC [K9F] is lower in protein stability index: 3.5 for the first, 2.16 for the second.

First: KQTIGNSCGACGYRGMLDTHHKLC [K9G]
Second: KQTIGNSCHACGYRGMLDTHHKLC [K9H]
The protein stability index of the first is lower: 2.82 for the first, 3.08 for the second.

Going from KQTIGNSCIACGYRGMLDTHHKLC [K9I] to KQTIGNSCLACGYRGMLDTHHKLC [K9L], the protein stability index falls from 2.97 to 2.6.

Compared with KQTIGNSCMACGYRGMLDTHHKLC [K9M], KQTIGNSCNACGYRGMLDTHHKLC [K9N] is lower in protein stability index: 2.85 for the first, 2.79 for the second.

First: KQTIGNSCPACGYRGMLDTHHKLC [K9P]
Second: KQTIGNSCQACGYRGMLDTHHKLC [K9Q]
The protein stability index of the first is higher: 4.46 for the first, 3.11 for the second.

Compared with KQTIGNSCRACGYRGMLDTHHKLC [K9R], KQTIGNSCSACGYRGMLDTHHKLC [K9S] is higher in protein stability index: 2.79 for the first, 2.88 for the second.

First: KQTIGNSCTACGYRGMLDTHHKLC [K9T]
Second: KQTIGNSCVACGYRGMLDTHHKLC [K9V]
The protein stability index of the first is higher: 3.3 for the first, 3.13 for the second.

First: KQTIGNSCWACGYRGMLDTHHKLC [K9W]
Second: KQTIGNSCYACGYRGMLDTHHKLC [K9Y]
The protein stability index of the first is higher: 2.89 for the first, 2.61 for the second.

Compared with KQTIGNSCKCCGYRGMLDTHHKLC [A10C], KQTIGNSCKDCGYRGMLDTHHKLC [A10D] is higher in protein stability index: 3.09 for the first, 3.68 for the second.

Compared with KQTIGNSCKECGYRGMLDTHHKLC [A10E], KQTIGNSCKFCGYRGMLDTHHKLC [A10F] is lower in protein stability index: 4.16 for the first, 4.01 for the second.

Compared with KQTIGNSCKGCGYRGMLDTHHKLC [A10G], KQTIGNSCKHCGYRGMLDTHHKLC [A10H] is higher in protein stability index: 2.71 for the first, 4.19 for the second.

Compared with KQTIGNSCKICGYRGMLDTHHKLC [A10I], KQTIGNSCKKCGYRGMLDTHHKLC [A10K] is lower in protein stability index: 3.86 for the first, 3.29 for the second.

Going from KQTIGNSCKLCGYRGMLDTHHKLC [A10L] to KQTIGNSCKMCGYRGMLDTHHKLC [A10M], the protein stability index falls from 3.3 to 3.12.

Compared with KQTIGNSCKNCGYRGMLDTHHKLC [A10N], KQTIGNSCKPCGYRGMLDTHHKLC [A10P] is lower in protein stability index: 2.85 for the first, 2.63 for the second.

Compared with KQTIGNSCKQCGYRGMLDTHHKLC [A10Q], KQTIGNSCKRCGYRGMLDTHHKLC [A10R] is higher in protein stability index: 3 for the first, 3.27 for the second.

Compared with KQTIGNSCKSCGYRGMLDTHHKLC [A10S], KQTIGNSCKTCGYRGMLDTHHKLC [A10T] is lower in protein stability index: 3.44 for the first, 3.36 for the second.

First: KQTIGNSCKVCGYRGMLDTHHKLC [A10V]
Second: KQTIGNSCKWCGYRGMLDTHHKLC [A10W]
The protein stability index of the first is higher: 3.33 for the first, 3.01 for the second.

Going from KQTIGNSCKYCGYRGMLDTHHKLC [A10Y] to KQTIGNSCKAAGYRGMLDTHHKLC [C11A], the protein stability index falls from 4.03 to 2.2.

First: KQTIGNSCKADGYRGMLDTHHKLC [C11D]
Second: KQTIGNSCKAEGYRGMLDTHHKLC [C11E]
The protein stability index of the first is higher: 1.7 for the first, 1.55 for the second.

First: KQTIGNSCKAFGYRGMLDTHHKLC [C11F]
Second: KQTIGNSCKAGGYRGMLDTHHKLC [C11G]
The protein stability index of the first is higher: 2.17 for the first, 1.69 for the second.

First: KQTIGNSCKAHGYRGMLDTHHKLC [C11H]
Second: KQTIGNSCKAIGYRGMLDTHHKLC [C11I]
The protein stability index of the first is higher: 1.53 for the first, 1.52 for the second.

Compared with KQTIGNSCKAKGYRGMLDTHHKLC [C11K], KQTIGNSCKALGYRGMLDTHHKLC [C11L] is higher in protein stability index: 1.88 for the first, 2.28 for the second.

Going from KQTIGNSCKAMGYRGMLDTHHKLC [C11M] to KQTIGNSCKANGYRGMLDTHHKLC [C11N], the protein stability index rises from 1.73 to 1.94.

Going from KQTIGNSCKAPGYRGMLDTHHKLC [C11P] to KQTIGNSCKAQGYRGMLDTHHKLC [C11Q], the protein stability index rises from 1.92 to 2.26.

Compared with KQTIGNSCKARGYRGMLDTHHKLC [C11R], KQTIGNSCKASGYRGMLDTHHKLC [C11S] is higher in protein stability index: 1.61 for the first, 1.9 for the second.

Going from KQTIGNSCKATGYRGMLDTHHKLC [C11T] to KQTIGNSCKAVGYRGMLDTHHKLC [C11V], the protein stability index rises from 1.56 to 2.88.

Going from KQTIGNSCKAWGYRGMLDTHHKLC [C11W] to KQTIGNSCKAYGYRGMLDTHHKLC [C11Y], the protein stability index rises from 2.06 to 2.4.

First: KQTIGNSCKACAYRGMLDTHHKLC [G12A]
Second: KQTIGNSCKACCYRGMLDTHHKLC [G12C]
The protein stability index of the first is lower: 1.37 for the first, 2.56 for the second.

Compared with KQTIGNSCKACDYRGMLDTHHKLC [G12D], KQTIGNSCKACEYRGMLDTHHKLC [G12E] is higher in protein stability index: 2.13 for the first, 2.93 for the second.

Compared with KQTIGNSCKACFYRGMLDTHHKLC [G12F], KQTIGNSCKACHYRGMLDTHHKLC [G12H] is higher in protein stability index: 1.73 for the first, 2.36 for the second.

First: KQTIGNSCKACIYRGMLDTHHKLC [G12I]
Second: KQTIGNSCKACKYRGMLDTHHKLC [G12K]
The protein stability index of the first is lower: 2.29 for the first, 3.06 for the second.

First: KQTIGNSCKACLYRGMLDTHHKLC [G12L]
Second: KQTIGNSCKACMYRGMLDTHHKLC [G12M]
The protein stability index of the first is lower: 1.92 for the first, 2.76 for the second.

Going from KQTIGNSCKACNYRGMLDTHHKLC [G12N] to KQTIGNSCKACPYRGMLDTHHKLC [G12P], the protein stability index falls from 2.25 to 1.84.

Going from KQTIGNSCKACQYRGMLDTHHKLC [G12Q] to KQTIGNSCKACRYRGMLDTHHKLC [G12R], the protein stability index rises from 2.54 to 2.66.

Going from KQTIGNSCKACSYRGMLDTHHKLC [G12S] to KQTIGNSCKACTYRGMLDTHHKLC [G12T], the protein stability index rises from 1.52 to 2.5.

Compared with KQTIGNSCKACVYRGMLDTHHKLC [G12V], KQTIGNSCKACWYRGMLDTHHKLC [G12W] is higher in protein stability index: 1.62 for the first, 1.78 for the second.

Going from KQTIGNSCKACYYRGMLDTHHKLC [G12Y] to KQTIGNSCKACGARGMLDTHHKLC [Y13A], the protein stability index rises from 2.14 to 3.7.

Compared with KQTIGNSCKACGCRGMLDTHHKLC [Y13C], KQTIGNSCKACGDRGMLDTHHKLC [Y13D] is lower in protein stability index: 3.61 for the first, 3.03 for the second.

First: KQTIGNSCKACGERGMLDTHHKLC [Y13E]
Second: KQTIGNSCKACGFRGMLDTHHKLC [Y13F]
The protein stability index of the first is higher: 3.75 for the first, 3.21 for the second.

Compared with KQTIGNSCKACGGRGMLDTHHKLC [Y13G], KQTIGNSCKACGHRGMLDTHHKLC [Y13H] is higher in protein stability index: 2.75 for the first, 2.77 for the second.

First: KQTIGNSCKACGIRGMLDTHHKLC [Y13I]
Second: KQTIGNSCKACGKRGMLDTHHKLC [Y13K]
The protein stability index of the first is lower: 2.16 for the first, 3.97 for the second.

First: KQTIGNSCKACGLRGMLDTHHKLC [Y13L]
Second: KQTIGNSCKACGMRGMLDTHHKLC [Y13M]
The protein stability index of the first is lower: 2.94 for the first, 3.32 for the second.

First: KQTIGNSCKACGNRGMLDTHHKLC [Y13N]
Second: KQTIGNSCKACGPRGMLDTHHKLC [Y13P]
The protein stability index of the first is higher: 3.46 for the first, 2 for the second.

Compared with KQTIGNSCKACGQRGMLDTHHKLC [Y13Q], KQTIGNSCKACGRRGMLDTHHKLC [Y13R] is lower in protein stability index: 3.29 for the first, 3.24 for the second.

Compared with KQTIGNSCKACGSRGMLDTHHKLC [Y13S], KQTIGNSCKACGTRGMLDTHHKLC [Y13T] is lower in protein stability index: 3.37 for the first, 3.19 for the second.

Going from KQTIGNSCKACGVRGMLDTHHKLC [Y13V] to KQTIGNSCKACGWRGMLDTHHKLC [Y13W], the protein stability index falls from 2.91 to 2.45.
